Drawing on the Human Domainome abundance scans (Beltran et al. 2025), this text covers abundance fitness for 39 variants.

± gives the uncertainty stated by the source.

The chains are these.
B1: Homeobox protein cut-like 2, residues 895 to 963; numbered along this chain, O14529 (parent)
chain: EVDTLELTRQVKEKLAKNGICQRIFGEKVLGLSQGSVSDMLSRPKPWSKLTQKGREPFIRMQLWLSDQL

Variants of B1 are the subject of the data set. Kind of data set: abundance fitness (aPCA) (normalised: wild type 0, dead -1); higher = more abundant; growth selection in yeast, the domain comes from the species named. Conditions: Homo sapiens.
Consider EVDTLELSRQVKEKLAKNGICQRIFGEKVLGLSQGSVSDMLSRPKPWSKLTQKGREPFIRMQLWLSDQL, for which the abundance fitness is -0.115 ± 0.031. With EVDTLELTRQVKEKLAKNGICQRIFGEKVLGLSQGSVSDMLSRPKTWSKLTQKGREPFIRMQLWLSDQL, the abundance fitness is -0.08 ± 0.036.

For the variant EVDTLELTRQVKEKLAKNGICQRIFGEKVLGLSQGSVSDMLSRPKFWSKLTQKGREPFIRMQLWLSDQL, the abundance fitness turned out to be 0.039 ± 0.032.

EVDTLELTRQVKEKLAKNGICQRIFGEKVLGLSQGSVSDMLSGPKPWSKLTQKGREPFIRMQLWLSDQL: the abundance fitness is -0.233 ± 0.042. With EVDTLELTRQVDEKLAKNGICQRIFGEKVLGLSQGSVSDMLSRPKPWSKLTQKGREPFIRMQLWLSDQL, the abundance fitness was -0.025 ± 0.11. As for EVDTLELTRQVKEKLAKNGICQRIFGEKVLGLSQGSVSDMLSRPKPWSKLTQKGREPFIRMQLWLSCQL, the figure is -0.576 ± 0.11; as for KVDTLELTRQVKEKLAKNGICQRIFGEKVLGLSQGSVSDMLSRPKPWSKLTQKGREPFIRMQLWLSDQL, -0.026 ± 0.067; as for EVDTLELTRQVKEKLAKNGICQRIFGEKVLGLSQGSVSDMLSRPKPWSKLTQKGREPFIRMQLDLSDQL, -1.06 ± 0.2. Regarding EVDTLELTRQVKEKLAKNGICQRIFGEKVLGLSQGSVSDMLSRPKPWSKLTQKGREPFIRMQLPLSDQL, the abundance fitness is -0.806 ± 0.05. In the case of EVDTLELTRQVKEKLAKNGICQRIFGEKVLGLSQGSVSDMLSRPKPDSKLTQKGREPFIRMQLWLSDQL, the abundance fitness is -0.772 ± 0.088. On to EVDTLELTRQVKEKLAKNGICQRIFGEKVLGLSQGSVSDMLSRPKPMSKLTQKGREPFIRMQLWLSDQL, for which the abundance fitness was -0.681 ± 0.053. As for EVDTLELTTQVKEKLAKNGICQRIFGEKVLGLSQGSVSDMLSRPKPWSKLTQKGREPFIRMQLWLSDQL, the figure is -0.135 ± 0.047; as for EVDTLELTRQVKEILAKNGICQRIFGEKVLGLSQGSVSDMLSRPKPWSKLTQKGREPFIRMQLWLSDQL, -0.022 ± 0.051. As for EVDTLELTRQVKEKLAKNGICQRIFGEKVLGLSQGSVSDMLSRPKPWSKLTQKGREPFIRMQLWTSDQL, the abundance fitness was -0.975 ± 0.058.

Turning to EVDTLELTRQVKEKLAKNGICQRIFGEKVLGLSQGSVSDMLSRPKPWSKLTQKGREPFIRMQLWGSDQL, the abundance fitness was -0.952 ± 0.14. With EVDTLWLTRQVKEKLAKNGICQRIFGEKVLGLSQGSVSDMLSRPKPWSKLTQKGREPFIRMQLWLSDQL, the abundance fitness is -0.173 ± 0.029.

Take EVDTLELTRQVKEKLAKNGICQRIFGEKVLGLSQGSVSDMLVRPKPWSKLTQKGREPFIRMQLWLSDQL: the abundance fitness is -0.146 ± 0.036. Consider EVDTLELTRQVKEKLAKNGICQRIFGQKVLGLSQGSVSDMLSRPKPWSKLTQKGREPFIRMQLWLSDQL, for which the abundance fitness is -0.007 ± 0.033. In the case of EVDTLELTRQVKEKLAKNGICQRIFGEKVSGLSQGSVSDMLSRPKPWSKLTQKGREPFIRMQLWLSDQL, the abundance fitness is -0.418 ± 0.049. Regarding EVDTLELTRQVKEKLAKNGICQRIFGEKVIGLSQGSVSDMLSRPKPWSKLTQKGREPFIRMQLWLSDQL, the abundance fitness was -0.301 ± 0.049. EVDTLELTRQVKEKLAKNGICQRIFREKVLGLSQGSVSDMLSRPKPWSKLTQKGREPFIRMQLWLSDQL: the abundance fitness is -0.295 ± 0.042. On to EVDTLELTRQVKEKLAKNGICGRIFGEKVLGLSQGSVSDMLSRPKPWSKLTQKGREPFIRMQLWLSDQL, for which the abundance fitness is -0.354 ± 0.049. Regarding EVDTLELTRQVKEKLAKNGICQRIFGEKVLGLSPGSVSDMLSRPKPWSKLTQKGREPFIRMQLWLSDQL, the abundance fitness amounted to 0.053 ± 0.029. For EVDTLELTRQVKEKLAKNGICQRIFGEKVLGLSQGSVSDMLSRPKPWSKLTNKGREPFIRMQLWLSDQL, the abundance fitness was -0.215 ± 0.12. As to EVDTLELTRQVKEKLAKNGICQRIFGEKVLGLSQGSVSDMLSRPKPWSKLTHKGREPFIRMQLWLSDQL, the abundance fitness was -0.218 ± 0.079.

As for EVDTLELTRQVKEKLAKNGICQRIEGEKVLGLSQGSVSDMLSRPKPWSKLTQKGREPFIRMQLWLSDQL, the abundance fitness is -0.904 ± 0.054. Next, EVDTLELTRQVKLKLAKNGICQRIFGEKVLGLSQGSVSDMLSRPKPWSKLTQKGREPFIRMQLWLSDQL: -0.138 ± 0.024; EVDTLELTRQVKPKLAKNGICQRIFGEKVLGLSQGSVSDMLSRPKPWSKLTQKGREPFIRMQLWLSDQL: -0.135 ± 0.049; EVDTLELTRQVKEKLAKNGICQRIFGEKVLGLSQGSVSDMLSRPKPWSKLTQKGRQPFIRMQLWLSDQL: -0.06 ± 0.05. Regarding EVDTLELTRQVKEKLAKNGICQRIFGEKVLGLSQGSVSDMLSRPKPWSKLTQKGRPPFIRMQLWLSDQL, the abundance fitness is -0.605 ± 0.047.

As for EVDTLELTRQVKEKLAKNGICQRIFGEKVLGLSQGNVSDMLSRPKPWSKLTQKGREPFIRMQLWLSDQL, the abundance fitness is -0.045 ± 0.041. On to EVDTLELTRQVKEKLAKNGICQRIFGEKVLGLSQGSVSDMLSRPKPWSKLTQKGREGFIRMQLWLSDQL, for which the abundance fitness was -0.456 ± 0.32. Next, EVDTLELTRQVKEKLAKNGICQRIFGEKVLGLSQGSVSDMLSRPKPWSKLTQKGREEFIRMQLWLSDQL: -0.139 ± 0.1; EVDTLELTRQVKEKLAKNGICQRIFGEKVLGLSQGSVSDMLSRPKPWSKLTQKGREDFIRMQLWLSDQL: -0.085 ± 0.17. Take EVDTLELTRQVKEKLAKNGICQRLFGEKVLGLSQGSVSDMLSRPKPWSKLTQKGREPFIRMQLWLSDQL: the abundance fitness amounted to 0.033 ± 0.029.

Regarding EVDTLELTRQVKEKLAKNGICQRGFGEKVLGLSQGSVSDMLSRPKPWSKLTQKGREPFIRMQLWLSDQL, the abundance fitness is -0.347 ± 0.042.

In the case of EVDTLELTRQVKEKLAKNGICQRIFGEKVLGLSQGSVSDMLSRPKPWSKLTQKGREPFIRMQLWLQDQL, the abundance fitness turned out to be 0.002 ± 0.035.

Consider EVDTLELTRQVKEKLAKNGICQRIFGEKVLGLSQGSVSDMLSRPKPWSKLTQKGREPFIRMQHWLSDQL, for which the abundance fitness came to 0.012 ± 0.04. Consider EVDTLELTRQVKEKLAKNGICQRIFGEKVLGLSQGSVSDKLSRPKPWSKLTQKGREPFIRMQLWLSDQL, for which the abundance fitness is -0.02 ± 0.074.
